How the values were obtained:
[1] = molecular target: T1, human PILRA, G78 variant, ectopically expressed on 293 cells (human, UniProt Q9UKJ1 20-303); assay: flow cytometry, 293 cells expressing target
T1 construct: the cells are labelled G78; also called hA G78 OE; hA
Experimental: (§1) Briefly, conditioned media containing antibodies were incubated with 293 cells for 30 min at 4° C., washed twice, and then detected with anti-mouse IgG Alexa 647.

[2] = molecular target: T2, human PILRB, ectopically expressed on 293 cells (human, UniProt Q9UKJ0 20-227); assay: flow cytometry, 293 cells expressing target
T2 construct: also called hB
Experimental: as §1

[3] = molecular target: cynomolgus PILRA, ectopically expressed on 293 cells (cynomolgus monkey); assay: flow cytometry, 293 cells expressing target
Experimental: as §1

[4] = molecular target: T3, murine PILRA, ectopically expressed on 293 cells (murine, UniProt Q2YFS3 32-302); assay: flow cytometry, 293 cells expressing target
T3 construct: also called mA
Experimental: as §1

[5] = molecular target: T4, murine PILRB, ectopically expressed on 293 cells (murine, UniProt Q2YFS2 29-224); assay: flow cytometry, 293 cells expressing target
T4 construct: whole, on cells; also called mB
Experimental: as §1

[6] = molecular target: T5, human PILRA, c-term His-Avi tag (human, UniProt Q9UKJ1 20-197, limits assumed); assay: SPR (Biacore), antibody captured, PILRA as analyte
T5 construct: not shown: C-terminal His-Avi tag
Experimental: Experiments were performed to determine the kinetics of anti-PILRA antibody binding to human […]. The assay is depicted in FIG. 6. A rabbit anti-PILRA was used as a positive control, and H1 LALAPS was used as a negative control. Human PILRA (human PILRA, c-term His-Avi tag, 0.68 mg/mi) was used as the antigen. The running buffer was HBSTE/0.5% BSA, pH 7.4, and the regeneration solution was 10 mM glycine-HCl (pH 2.1). In the assay, antibodies were captured at 10 μg/ml by immobilized anti-huFc or anti-msFc on a Biacore CM5 chip, and human PILRA flowed at 33, 100, and 300 nM. The surface was regenerated after each analyte, and all curves were double-referenced with buffer injections.

[7] = molecular target: T1, human PILRA, G78 variant, ectopically …; assay: flow cytometry; blocking of NPDC1-hIgG1 binding to 293 cells expressing human PILRA G78

T2 sequence (Q9UKJ0 20-227): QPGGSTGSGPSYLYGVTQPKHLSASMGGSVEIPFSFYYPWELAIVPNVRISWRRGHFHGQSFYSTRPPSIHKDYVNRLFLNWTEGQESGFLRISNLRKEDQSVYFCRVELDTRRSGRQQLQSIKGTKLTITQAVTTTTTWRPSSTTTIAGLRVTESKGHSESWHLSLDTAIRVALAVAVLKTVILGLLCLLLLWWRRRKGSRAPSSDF
Sequence of cynomolgus PILRA, ectopically expressed on 293 cells (cynomolgus monkey) (chain, as listed by the source): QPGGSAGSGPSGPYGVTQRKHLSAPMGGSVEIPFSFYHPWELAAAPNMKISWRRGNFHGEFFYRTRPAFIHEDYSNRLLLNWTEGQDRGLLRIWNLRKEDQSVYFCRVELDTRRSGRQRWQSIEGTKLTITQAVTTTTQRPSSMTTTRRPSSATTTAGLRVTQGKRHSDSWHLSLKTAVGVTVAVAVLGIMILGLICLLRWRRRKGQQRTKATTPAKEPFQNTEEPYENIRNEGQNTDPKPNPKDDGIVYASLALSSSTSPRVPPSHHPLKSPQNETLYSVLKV
T1 sequence (Q9UKJ1 other isoform, or with tags, fused parts or gaps mutant): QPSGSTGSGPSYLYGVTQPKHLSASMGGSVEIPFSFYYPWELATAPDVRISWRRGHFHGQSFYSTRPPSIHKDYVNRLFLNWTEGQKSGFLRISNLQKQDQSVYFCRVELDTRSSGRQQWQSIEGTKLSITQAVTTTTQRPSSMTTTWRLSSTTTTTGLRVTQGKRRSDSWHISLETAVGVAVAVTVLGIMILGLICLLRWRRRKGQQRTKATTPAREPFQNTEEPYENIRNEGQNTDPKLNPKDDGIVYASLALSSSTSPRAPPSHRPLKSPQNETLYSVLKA
T3 sequence (Q2YFS3 32-302): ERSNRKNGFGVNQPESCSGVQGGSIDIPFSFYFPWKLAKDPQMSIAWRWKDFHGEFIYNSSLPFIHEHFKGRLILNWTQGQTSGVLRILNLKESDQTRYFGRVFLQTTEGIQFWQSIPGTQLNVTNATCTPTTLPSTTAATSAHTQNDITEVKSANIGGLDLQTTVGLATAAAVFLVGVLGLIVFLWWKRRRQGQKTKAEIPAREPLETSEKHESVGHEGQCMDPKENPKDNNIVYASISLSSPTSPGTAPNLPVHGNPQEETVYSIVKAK
T5 sequence (Q9UKJ1 20-197 limits assumed): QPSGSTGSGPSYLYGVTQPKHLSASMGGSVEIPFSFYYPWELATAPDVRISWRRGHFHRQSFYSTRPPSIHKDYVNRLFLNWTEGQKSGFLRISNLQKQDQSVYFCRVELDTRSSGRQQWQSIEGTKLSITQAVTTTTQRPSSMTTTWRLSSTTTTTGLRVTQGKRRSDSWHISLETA
T4 sequence (Q2YFS2 29-224): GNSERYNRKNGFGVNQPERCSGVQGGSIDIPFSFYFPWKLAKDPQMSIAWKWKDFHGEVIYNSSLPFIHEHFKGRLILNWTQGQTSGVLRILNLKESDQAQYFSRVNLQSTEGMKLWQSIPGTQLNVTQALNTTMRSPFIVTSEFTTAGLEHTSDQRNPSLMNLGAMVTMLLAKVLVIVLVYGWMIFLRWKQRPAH

Binder | EC50 [1] [µg/mL] | binding result [2] | binding result [3] | binding result [4] | binding result [5] | Kd [6] [nM] | koff [6] [s⁻¹] | kon [6] [M⁻¹ s⁻¹] | IC50 [7] [µg/mL] | EC50 [3] [µg/mL] | EC50 [2] [µg/mL] | t½ [6] [min]
A1 (antibody, V domains shown, phage campaign) VH: QVQLVQSGAEVKKPGSSVKVSCKASGYTFINHDINWVRQAPGQGLEWMGWMNPNSGNTGYAQKFQGRVTITADESTSTAYMELSSLRSEDTAVYYCARDRRGSYYGLMDWFDPWGQGTLVTVSS VL: DIQMTQSPSSLSASVGDRVTITCRASQSISRWLAWYQQKPGKAPKLLIYDASNLETGVPSRFSGSGSGTDFTLTISSLQPEDFATYYCQQSYSTPSFGQGTKVEIK | 1.9 | no binding | no binding | no binding | no binding | 99.6 | 0.0038 | 38000 | 1.9 |  |  | 
A6 (antibody, V domains shown, phage campaign) VH: QVQLVQSGAEVKKPGSSVKVSCKASGYTFINYDINWVRQAPGQGLEWMGGIIPIFGAPVYAQDFQGRVTITADESTSTAYMELSSLRSEDTAVYYCAIADGAGWFDPWGQGTLVTVSS VL: not shown | 1.7 | no binding |  | no binding | no binding | 86.5 | 0.0052 | 61000 | 5.7 | 0.3 |  | 
A7 (antibody, V domains shown, phage campaign) VH: QVQLVQSGAEVKKPGSSVKVSCKASGYTFTSYDINWVRQAPGQGLEWMGGIIPIFGTANYAQKFQGRVTITADESTGTAYMELSSLRSEDTAVYYCAIADGAGWFDPWGQGTLVTVSS VL: not shown | 0.5 | no binding |  | no binding | no binding | 75.7 | 0.0064 | 85000 | 0.77 | 0.3 |  | 
E5 (antibody, V domains shown) VH: QVQLVQSGAEVKKPGSSVKVSCKASGYTFTSYGINWVRQAPGQGLEWMGWINPNSGDTLYAQNFQGRVTITADESTSTAYMELSSLRSEDTAVYYCARGPEPYWYFDLWGRGTLVTVSS VL: EIVMTQSPATLSVSPGERATLSCRASQNIDSRFLAWYQQKPGQAPRLLIYGASTRATGIPARFSGSGSGTEFTLTISSLQSEDFAVYYCQQSFSTPLTFGGGTKVEIK | 0.1 |  | no binding | no binding | no binding | 76.2 | 0.0061 | 80000 | 0.22 |  | 0.3 | 
A4 (antibody, V domains shown, phage campaign) VH: QVQLVQSGAEVKKPGSSVKVSCKASGYTFTGYAVNWVRQAPGQGLEWMGGIIPIFGTANYAQKFQGRVTITADESTSTAYMELSSLRSEDTAVYYCARNLGYSSGWSGYYYGMDVWGQGTMVTVSS VL: EIVMTQSPATLSVSPGERATLSCRASQSVSSNYLAWYQQKPGQAPRLLIYGASTRATGIPARFSGSGSGTEFTLTISSLQSEDFAVYYCQQYGSSSFTFGPGTKLEIK | 0.7 | no binding |  | no binding | no binding | 113 | 0.005 | 44000 | 0.32 | 1.3 |  | 
E10 (antibody, V domains shown, phage campaign) VH: EVQLLESGGGLVKPGGSLRLSCAASGFTFSNYAMSWVRQAPGKGLEWVAVIYSGADTYYADSVKGRFTISRDDSKNTLYLQMNSLKTEDTAVYYCTRDIGLNYGDYELFDYWGQGTLVTVSS VL: DIVMTQSPLSLPVTPGEPASISCRSSQSLLHSNGYNYLDWYLQKPGQSPQLLIYDASNLETGVPDRFSGSGSGTDFTLKISRVEAEDVGVYYCMQGLQTPYVFGQGTKLEIK | 0.1 | no binding | no binding | no binding | no binding | 14.5 | 0.0016 | 110000 |  |  |  | 
E15 (antibody, V domains shown, B-cell cloning campaign (mice)) VH: QVQLQQSGAELVKPGASVKLSCKASGNTFTIYDINWVRQRPEQGLEWIGWIFPGDGSTKYNGKFKGKATLTTDKSSSTAYMQLSRLTSEDSAVYFCARRAHYYGSSFDYWGQGTTLTVSS VL: DIQMTQSSSYLSVSLGGRVTITCKASDHINNWLAWYQQKPGNGPRLLISGAISLEIGVPSRFSGSGSGKEYTLSITSLQTEDVATYYCQQYWSPPWTFGGGTKLEIK | 4.73 |  |  | no binding | no binding | 31.3 | 0.0017 | 53000 |  | 14.6 | 16.4 | 6.9
A2 (antibody, V domains shown, phage campaign) VH: EVQLLESGGGLVKPGGSLRLSCAASGFTFSDYYMSWVRQAPGKGLEWVSSISIGGGGTYYADSVKGRFTISRDDSKNTLYLQMNSLRAEDTAVYYCASHGFGARKMDFWGQGTTVTVSS VL: DIQMTQSPSSLSASVGDRVTITCRASQSIRSYVNWYQQKPGKAPKLLIYDASNLETGVPSRFSGSGSGTDFTLTISSLQPEDFATYYCQQSYSPPITFGQGTKVEIK | 0.3 |  | no binding | no binding | no binding | 193 | 0.0063 | 33000 | 0.78 |  |  | 
A3 (antibody, V domains shown, phage campaign) VH: EVQLLESGGGLVQPGGSLRLSCAASGFTFSRYEMNWVRQAPGKGLEWVAGISYDGSYEYYADSVKGRFTISRDNSKNTLYLQMNSLRAEDTAVYYCAKGSYGYDAFDIWGQGTMVTVSS VL: DIQMTQSPSSLSASVGDRVTITCRASQSISSWLAWYQQKPGKAPKLLIYATSTLQSGVPSRFSGSGSGTDFTLTISSLQPEDFATYYCQQSYSPPYTFGQGTKVEIK | 0.1 | no binding | no binding | no binding | no binding | 93.7 | 0.0067 | 71000 | 0.38 |  |  | 
A14 (antibody, V domains shown, phage campaign) VH: QVQLVQSGAEVKKPGASVKVSCKASGYTFTSYYMYWVRQAPGQGLEWMGWMNPNSGNTGFAQKFQGRVTMTRDTSTSTVYMELSSLRSEDTAVYYCASGYYDSWSGETDYGMDVWGQGTTVTVSS VL: DIQMTQSPSSLSASVGDRVTITCRASQSISSYLNWYQQKPGKAPKLLIYDASTLESGVPSRFSGSGSGTDFTLTISSLQPEDFATYYCQQSYKTPYTFGQGTKLEIK | 0.5 |  |  | no binding | no binding | 12.2 | 0.0012 | 99000 |  | 11.5 | 12.9 | 9.6
A12 (antibody, V domains shown, phage campaign) VH: QVQLVQSGAEVKKPGASVKVSCKASGYNFNDYYIHWVRQAPGQGLEWMGWISAYNGNTNYAQKLQGRVTMTRDTSTSTVYMELSSLRSEDTAVYYCARDGWYCSSSSCYTGSDYWGQGTLVTVSS VL: DIQMTQSPSSLSASVGDRVTITCRASQSISNYLNWYQQKPGKAPKLLIYGASTLHSGVPSRFSGSGSGTDFTLTISSLQPEDFATYYCQQSYSTPFTFGPGTKVDIK | 0.4 |  |  | no binding | no binding | 19.3 | 0.0012 | 63000 |  | 8.6 | 8.6 | 9.6
A15 (antibody, V domains shown, phage campaign) VH: QVQLVQSGAEVKKPGASVKVSCKASGGTFSNYGLTWVRQAPGQGLEWMGWINLNSGGTYYAQKFQGRVTMTRDTSTSTVYMELSSLRSEDTAVYYCARDRYSSGWYEGDAFDIWGQGTMVTVSS VL: DIQMTQSPSSLSASVGDRVTITCRASQGISNWLAWYQQKPGKAPKLLIYAASSLQSGVPSRFSGSGSGTDFTLTISSLQPEDFATYYCQQSYSTPWTFGPGTKVDIK | 0.2 |  |  | no binding | no binding |  |  |  | 0.27 | 11.1 | 10.5 | 
A5 (antibody, V domains shown, phage campaign) VH: QVQLVQSGAEVKKPGSSVKVSCKASGYTFTDYYMNWVRQAPGQGLEWMGGIIPIFGTADYAQRFQGRVTITADESTSTAYMELSSLRSEDTAVYYCARDAGYYGMDVWGQGTLVTVSS VL: EIVMTQSPATLSVSPGERATLSCRASQSVSNYLAWYQQKPGQAPRLLIYGASTRATGIPARFSGSGSGTEFTLTISSLQSEDFAVYYCQQFDDLPLTFGPGTKVEIK | 3.4 | no binding |  | no binding | no binding | 32.1 | 0.0045 | 140000 | 0.64 | 2.8 |  | 

Reference: US20240425587A1 (Alector, published 2024)
